These results are taken from patent publication US20160083466A1.

For this assay, the target named is human IL-25 expressed with a C-terminal myc-myc-hexahistidine tag (human). The experiment in a line: competition ELISA, 2 nM hIL-25-MMH binding to coated hIL-17RB-hFc; IC50 cell printed 'Non-blocker'.
human IL-25 expressed with a C-terminal myc-myc-hexahistidine tag (human), sequence (chain, as listed by the source): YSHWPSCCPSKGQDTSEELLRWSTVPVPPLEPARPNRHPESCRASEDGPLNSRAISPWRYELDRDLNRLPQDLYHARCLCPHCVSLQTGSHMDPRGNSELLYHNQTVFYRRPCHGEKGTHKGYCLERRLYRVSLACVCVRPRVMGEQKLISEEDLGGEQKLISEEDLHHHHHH

On to hIgG4 isotype control (antibody), for which the % Maximum blocking of 200 nM antibody was -31%.
As to mIgG2a isotype control (antibody), the % Maximum blocking of 200 nM antibody is -45%.
